{
  "source": "paper PMC6814260",
  "about": "(Chembiochem : a European journal of chemical biology, 2019)",
  "target": "the molecule itself",
  "data": [
    {"protein": "XoxF, lanthanide-dependent methanol dehydrogenase from Methylobacterium extorquens AM1 (enzyme, UniProt C5B120 22-601, looked up) NESVLKGVANPAEQVLQTVDYANTRYSKLDQINASNVKNLQVAWTFSTGVLRGHEGSPLVVGNIMYVHTPFPNIVYALDLDQGAKIVWKYEPKQDPSVIPVMCCDTVNRGLAYADGAILLHQADTTLVSLDAKSGKVNWSVKNGDPSKGETNTATVLPVKDKVIVGISGGEFGVQCHVTAYDLKSGKKVWRGYSIGPDDQLIVDPEKTTSLGKPIGKDSSLKTWEGDQWKTGGGCTWGWFSYDPKLDLMYYGSGNPSTWNPKQRPGDNKWSMTIWARNPDTGMAKWVYQMTPHDEWDFDGINEMILTDQKFDGKDRPLLTHFDRNGFGYTLDRATGEVLVAEKFDPVVNWATKVDLDKGSKTYGRPLVVSKYSTEQNGEDVNSKGICPAALGTKDQQPAAFSPKTGLFYVPTNHVCMDYEPFRVTYTPGQPYVGATLSMYPAPGSHGGMGNFIAWDNLQGKIKWSNPEQFSAWGGALATAGDVVFYGTLEGFLKAVDSKTGKELYKFKTPSGIIGNVMTYEHKGKQHVAVLSGVGGWAGIGLAAGLTDPNAGLGAVGGYAALSSYTNLGGQLTVFSLPNN", "values": [
      {"measurement": "stoichiometry N", "result": 2}
    ]}
  ]
}
